Reference: PMC10636204

Biological target: T1, mouse TMEM63B (purified, GFP tag removed) (mouse), Q3TWI9
T1 chain: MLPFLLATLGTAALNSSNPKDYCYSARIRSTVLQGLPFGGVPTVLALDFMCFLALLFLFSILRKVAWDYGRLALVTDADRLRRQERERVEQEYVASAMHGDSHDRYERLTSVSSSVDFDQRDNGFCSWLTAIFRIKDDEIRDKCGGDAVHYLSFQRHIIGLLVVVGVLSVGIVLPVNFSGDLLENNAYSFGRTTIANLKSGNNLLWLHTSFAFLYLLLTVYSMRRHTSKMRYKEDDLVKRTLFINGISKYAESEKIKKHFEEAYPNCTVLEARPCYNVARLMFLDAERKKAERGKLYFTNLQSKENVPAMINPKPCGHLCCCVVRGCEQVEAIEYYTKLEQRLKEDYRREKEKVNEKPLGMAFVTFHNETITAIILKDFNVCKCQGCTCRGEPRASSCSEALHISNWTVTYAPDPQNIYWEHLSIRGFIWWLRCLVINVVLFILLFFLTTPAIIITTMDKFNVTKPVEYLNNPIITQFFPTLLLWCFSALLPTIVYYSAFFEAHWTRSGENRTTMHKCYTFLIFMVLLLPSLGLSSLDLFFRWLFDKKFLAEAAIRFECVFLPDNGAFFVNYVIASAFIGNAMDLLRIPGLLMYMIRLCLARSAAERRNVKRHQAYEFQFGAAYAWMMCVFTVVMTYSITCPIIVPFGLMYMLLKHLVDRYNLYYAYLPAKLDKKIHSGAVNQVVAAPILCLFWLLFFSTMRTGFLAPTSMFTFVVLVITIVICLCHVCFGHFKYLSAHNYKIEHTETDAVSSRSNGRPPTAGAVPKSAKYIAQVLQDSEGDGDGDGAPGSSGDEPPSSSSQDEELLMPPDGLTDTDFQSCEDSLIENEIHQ
Assay: cryo-EM 2D classification; purified mouse TMEM63B; 2D classification of particles, top/bottom views
Settings: remark: other sources report otherwise

stoichiometry N: 2
B1: mouse TMEM63B (purified, GFP tag removed), Q3TWI9 1-832 (natural protein)
chain: T1 chain
